In the supplement of paper PMC7877785:
± gives the uncertainty stated by the source.

Assay: self-splicing fitness, log relative to wild type (ln ratio); higher = more splicing; Tetrahymena group I intron in knt gene, E. coli kanamycin selection, DiMSum; sequences stand for … in CUCUCU…GGAGGGAAAAGUUAUCAGGCAUGCACCUGGUAGCUAGUCUUUAAACCAAUAGAUUGCAUCGGUUUAAAAGGCAAGACCGUCAAAUUGCGGGAAAGGGGUCAACAGCCGUUCAGUACCAAGUCUCAGGGGAAACUUUGAGAUGGCCUUGCAAAGGGUAUGGUAAUAAGCUGACGGACAUGGUCCUAACCACGCAGCCAAGUCCUAAGUCAACAGAUCUUCUGUUGAUAUGGAUGCAGUUCACAGACUAAAUGUCGGUCGGGGAAGAUGUAUUCUUCUCAUAAGAUAUAGUCGGACCUCUCCUUAAUGGGAGCUAGCGGAUGAAGUGAUGCAACACUGGAGCCGCUGGGAACUAAUUUGUAUGCGAAAGUAUAUUGAUUAGUUUUGGAGUACUCGUGGUCG
Outline: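 The eight P1ex-region nucleotides of an intron in the knt kanamycin-resistance gene on pET-22b(+) were all randomised and the library put into E. coli BL21(DE3). Six replicate transformations were grown overnight at 37°C or 30°C on LB agar with or without 25 μg/mL kanamycin, together with 100 μg/mL carbenicillin, 50 μM IPTG and 0.2% rhamnose. Colonies were pooled and amplicon-sequenced on an Illumina HiSeq 2500. Fitness from DiMSum is the error-weighted combination of wild-type-normalised replicate fold changes, kanamycin over none.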

| Sequence | self-splicing fitness (ln) (30 °C) | self-splicing fitness (ln) (37 °C) |
| --- | --- | --- |
| CCACAGCAAUAUUACGCUGG | -4.04 ± 0.22 | -2.58 ± 0.2 |
| CGAUAGCAAUAUUACGACUU | -1.4 ± 0.088 | -1.47 ± 0.13 |
| GAAUAGCAAUAUUACGCGCC | -1.29 ± 0.24 | -1.32 ± 0.29 |
| CAAUAGCAAUAUUACGUGCA | -2.72 ± 0.19 | -1.27 ± 0.15 |
| AUGUAGCAAUAUUACGCUCG | -0.227 ± 0.078 | 0.00954 ± 0.13 |
| CGCCAGCAAUAUUACGAUAC | -3.42 ± 0.22 | -3.13 ± 0.24 |
| UCGUAGCAAUAUUACGACCA | -1.35 ± 0.3 | – |
| AAUUAGCAAUAUUACGGCGA | -0.312 ± 0.1 | 0.113 ± 0.1 |
| UCACAGCAAUAUUACGAUGG | -1.52 ± 0.06 | -0.512 ± 0.081 |
| UUUCAGCAAUAUUACGCAUA | -2.13 ± 0.21 | -0.691 ± 0.17 |
| GGGGAGCAAUAUUACGGCUA | -0.686 ± 0.18 | -0.291 ± 0.17 |
| GGAGAGCAAUAUUACGCAUC | -3.08 ± 0.28 | -2.85 ± 0.43 |
| CGUGAGCAAUAUUACGCGUU | -3.11 ± 0.28 | -2.72 ± 0.2 |
| UAUUAGCAAUAUUACGGUGG | -2.71 ± 0.28 | -1.22 ± 0.2 |
| CCCGAGCAAUAUUACGUGUC | -5.12 ± 0.38 | -2.8 ± 0.19 |
| UAGGAGCAAUAUUACGAGCA | -2.38 ± 0.17 | -1.58 ± 0.15 |
| GCGUAGCAAUAUUACGGGCC | -3.1 ± 0.32 | – |
| UUCAAGCAAUAUUACGCUGU | -2.98 ± 0.17 | -1.19 ± 0.14 |
| ACGAAGCAAUAUUACGACAG | -1.59 ± 0.11 | -0.583 ± 0.13 |
| AAGGAGCAAUAUUACGGCCA | -1.83 ± 0.19 | -1.66 ± 0.27 |
| UAGAAGCAAUAUUACGAUUU | -0.745 ± 0.067 | -1.11 ± 0.095 |
| CUUCAGCAAUAUUACGCUUU | – | -2.85 ± 0.31 |
| AACUAGCAAUAUUACGAGAA | -2.64 ± 0.48 | -1.71 ± 0.22 |
| UGGUAGCAAUAUUACGAGCG | -0.4 ± 0.053 | -0.521 ± 0.081 |
| GAACAGCAAUAUUACGAGUU | -2.29 ± 0.092 | -0.935 ± 0.1 |

| Sequence | self-splicing fitness (ln) (30 °C) | self-splicing fitness (ln) (37 °C) |
| --- | --- | --- |
| GUCGAGCAAUAUUACGUGCA | -2.29 ± 0.22 | -0.701 ± 0.17 |
| UCUCAGCAAUAUUACGGAUG | -2.78 ± 0.12 | -0.753 ± 0.13 |
| GACUAGCAAUAUUACGACUG | -1.64 ± 0.1 | 0.0415 ± 0.13 |
| CCGAAGCAAUAUUACGAGAG | -3.28 ± 0.22 | -1.53 ± 0.19 |
| GUAAAGCAAUAUUACGCCCA | 0.335 ± 0.062 | 0.419 ± 0.085 |
| UUCUAGCAAUAUUACGAUGG | -2.49 ± 0.19 | -1.02 ± 0.34 |
| UACCAGCAAUAUUACGUGCU | -4.3 ± 0.19 | -2.93 ± 0.17 |
| GCCGAGCAAUAUUACGUAUA | -3.29 ± 0.15 | -1.87 ± 0.12 |
| GCUAAGCAAUAUUACGCCCC | -1.74 ± 0.28 | -0.52 ± 0.21 |
| CAGUAGCAAUAUUACGAGAC | -3.08 ± 0.24 | -1.31 ± 0.28 |
| UCUGAGCAAUAUUACGCAUC | – | -2.47 ± 0.49 |
| GCGCAGCAAUAUUACGUUUA | -1.01 ± 0.1 | -0.423 ± 0.1 |
| UAGAAGCAAUAUUACGAUUC | -2.82 ± 0.17 | -2.06 ± 0.21 |
| UAAGAGCAAUAUUACGUUGA | – | -1.97 ± 0.19 |
| CAUCAGCAAUAUUACGGCGA | -3.11 ± 0.28 | -1.27 ± 0.15 |
| CAGCAGCAAUAUUACGACGA | -1.68 ± 0.13 | -0.501 ± 0.096 |
| AAAGAGCAAUAUUACGCUCA | – | -0.771 ± 0.37 |
| CCCCAGCAAUAUUACGGCGA | -2.05 ± 0.14 | -1.64 ± 0.14 |
| AUCGAGCAAUAUUACGACGC | -1.28 ± 0.094 | -0.674 ± 0.12 |
| AGGGAGCAAUAUUACGCAGA | – | -3.27 ± 0.43 |
| CAGAAGCAAUAUUACGUGGU | -3.58 ± 0.17 | -1.86 ± 0.16 |
| CGGCAGCAAUAUUACGGAGA | -1.63 ± 0.3 | -1.62 ± 0.29 |
| CUGGAGCAAUAUUACGGUUC | -2.68 ± 0.49 | – |
| ACGGAGCAAUAUUACGUUCU | -3.16 ± 0.31 | -2.52 ± 0.22 |
| AAACAGCAAUAUUACGGGGU | -3.07 ± 0.11 | -2.6 ± 0.14 |

| Sequence | self-splicing fitness (ln) (30 °C) | self-splicing fitness (ln) (37 °C) |
| --- | --- | --- |
| AGGCAGCAAUAUUACGGGCG | -0.287 ± 0.097 | -0.172 ± 0.11 |
| CGUGAGCAAUAUUACGAAGG | -2.37 ± 0.14 | -1.42 ± 0.14 |
| CUCGAGCAAUAUUACGUGGG | -3.08 ± 0.14 | -2.88 ± 0.2 |
| CCACAGCAAUAUUACGGUUU | -4.31 ± 0.19 | -2.8 ± 0.16 |
| GUUGAGCAAUAUUACGAGAC | – | -0.388 ± 0.31 |
| CGAAAGCAAUAUUACGCUAA | -3.88 ± 0.4 | -1.53 ± 0.21 |
| CGUGAGCAAUAUUACGAAAC | – | -0.708 ± 0.31 |
| GGGCAGCAAUAUUACGUCUC | -2.15 ± 0.23 | -1.41 ± 0.15 |
| UUCGAGCAAUAUUACGCCCA | -2.1 ± 0.31 | -1.15 ± 0.22 |
| GCAUAGCAAUAUUACGAACA | -1.61 ± 0.13 | -1.34 ± 0.12 |
| AUCCAGCAAUAUUACGCCAC | -2.03 ± 0.18 | -2.5 ± 0.2 |
| CUCUAGCAAUAUUACGGUGC | -2.62 ± 0.21 | – |
| UGGCAGCAAUAUUACGUUGU | -3.71 ± 0.29 | -3.17 ± 0.3 |
| UAUGAGCAAUAUUACGUCAU | -3.16 ± 0.2 | -2.38 ± 0.23 |
| UCAAAGCAAUAUUACGCGUU | -3.65 ± 0.18 | -3.64 ± 0.29 |
| GCGUAGCAAUAUUACGAUAU | -0.111 ± 0.081 | -0.357 ± 0.1 |
| AAGUAGCAAUAUUACGGCCA | -0.679 ± 0.095 | 0.256 ± 0.11 |
| GUGUAGCAAUAUUACGUCGG | -2.7 ± 0.24 | -2.73 ± 0.33 |
| AGUGAGCAAUAUUACGAAGG | -3.45 ± 0.37 | -1.41 ± 0.38 |
| CUGGAGCAAUAUUACGCGUU | -3.89 ± 0.33 | -1.86 ± 0.27 |
| AGUGAGCAAUAUUACGGCAC | -1.29 ± 0.17 | -1.01 ± 0.21 |
| GAAGAGCAAUAUUACGCCCC | -1.93 ± 0.17 | -0.902 ± 0.18 |
| GGUCAGCAAUAUUACGGACU | -1.49 ± 0.44 | – |
| CUUCAGCAAUAUUACGAAGU | -2.31 ± 0.17 | -2.66 ± 0.38 |
| GGCCAGCAAUAUUACGCCUA | -1.05 ± 0.15 | -1.05 ± 0.15 |

| Sequence | self-splicing fitness (ln) (30 °C) | self-splicing fitness (ln) (37 °C) |
| --- | --- | --- |
| GGCGAGCAAUAUUACGUCGC | -2.72 ± 0.23 | – |
| GUGUAGCAAUAUUACGUUCU | -0.842 ± 0.09 | 0.00858 ± 0.11 |
| UCCCAGCAAUAUUACGCGUG | -3.49 ± 0.18 | -2.34 ± 0.2 |
| GCGGAGCAAUAUUACGAUUU | -2.22 ± 0.14 | -0.641 ± 0.14 |
| UGUUAGCAAUAUUACGUAGA | -2.29 ± 0.12 | -0.809 ± 0.14 |
| GCAGAGCAAUAUUACGGAUG | -2.76 ± 0.18 | -1.82 ± 0.22 |
| CCACAGCAAUAUUACGUAAU | -3.17 ± 0.13 | -2.41 ± 0.2 |
| CAUAAGCAAUAUUACGAUUC | -3.25 ± 0.2 | -3.11 ± 0.26 |
| CCGCAGCAAUAUUACGUAUU | -3.84 ± 0.17 | -2.66 ± 0.15 |
| CAGGAGCAAUAUUACGUUGU | -3.34 ± 0.17 | -2.26 ± 0.19 |
| UACCAGCAAUAUUACGAGGA | -1.63 ± 0.14 | -1.24 ± 0.12 |
| ACAUAGCAAUAUUACGGUCA | -0.873 ± 0.13 | 0.165 ± 0.13 |
| AGCCAGCAAUAUUACGGAUA | -1.63 ± 0.11 | -1.51 ± 0.12 |
| UUUUAGCAAUAUUACGUAUA | -2.59 ± 0.42 | – |
| UUCAAGCAAUAUUACGCCAA | -0.664 ± 0.11 | -0.538 ± 0.11 |
| CAGCAGCAAUAUUACGCUUA | -1.51 ± 0.13 | -0.645 ± 0.12 |
| AGACAGCAAUAUUACGGACU | -0.583 ± 0.068 | -0.3 ± 0.087 |
| UUGUAGCAAUAUUACGAUUU | -3.15 ± 0.25 | -1.91 ± 0.24 |
| GCGAAGCAAUAUUACGUCAU | -2.72 ± 0.15 | -1.65 ± 0.14 |
| AUAAAGCAAUAUUACGAACA | 0.281 ± 0.085 | 0.425 ± 0.11 |
| ACAUAGCAAUAUUACGUCCA | -1.24 ± 0.14 | -0.641 ± 0.17 |
| UGAAAGCAAUAUUACGUGCA | 0.0492 ± 0.078 | 0.75 ± 0.098 |
| ACGCAGCAAUAUUACGGCCG | -1.66 ± 0.11 | -0.0837 ± 0.15 |
| CGGAAGCAAUAUUACGCUCA | -1.59 ± 0.17 | 0.105 ± 0.18 |
